{"source": "patent US20190248888A1", "about": "“METHODS OF LOWERING BLOOD GLUCOSE LEVELS” (Regeneron Pharmaceuticals, Inc., priority 2016, published 2019)", "molecules": {"B1": {"name": "α-GCGR: potent monoclonal GCGR blocking antibody, HCVR/LCVR SEQ ID NOs: 86/88 (antibody, V domains shown)", "VH": "EVQLVESGGGLVQPGGSLRLSCAASGFTFSNYLMNWVRQAPGKGLEWLANIQEDGIEKYYVDSVKGRFTISRDNAKNSLYLQMNSLRAEDTAVYYCAREPSHYDILTGYDYYYGMDVWGQGTTVTVS", "VL": "DIQMTQSPSSLSASVGDRVTITCRASQGIRNDLGWYQQKPGKAPKRLIYAASSLQSGVPSRFSGSGSGTEFILTVSSLQPEDFATYYCLQYNSNPFTFGPGTKVDIK"}}, "tested_on": "isolated pancreatic islets from mice", "assay": "RNAseq gene expression in isolated pancreatic islets of GCGR antibody treated mice (Table 5)", "format": "in vivo, mouse", "conditions": "10 mg/kg, 21 days", "method": "Mouse islets were isolated by density gradient separation after perfusing pancreas with Liberase TL (Roche, Indianapolis) through the common bile duct. Following a 13 min digestion at 37° C., the pancreas solution was washed and filtered through a 400-μm wire mesh strainer and islets were separated by Histopaque gradient centrifugation (Sigma-Aldrich). Isolated islets were cultured overnight in RPMI-1640 medium supplemented with 10% (v/v) FBS, 10 mM HEPES, 50 μM β-mercaptoethanol, 1.0 mM sodium-pyruvate, 100 U/mL penicillin and 100 μg/mL streptomycin at 37° C. with a 5% CO2 in air atmosphere.\nTotal RNA was purified from all samples using MagMAX™-96 for Microarrays Total RNA Isolation Kit (Ambion by Life Technologies) according to manufacturer's specifications. Genomic DNA was removed using MagMAX™Turbo™DNase Buffer and TURBO DNase from the MagMAX kit listed above (Ambion by Life Technologies). mRNA was purified from total RNA using Dynabeads® mRNA Purification Kit (Invitrogen). Strand-specific RNA-seq libraries were prepared using ScriptSeq™ mRNA-Seq Library Preparation Kit (Epicentre). Twelve-cycle PCR was performed to amplify libraries. Sequencing was performed on Illumina HiSeq®2000 (Illumina) by multiplexed single-read run with 33 cycles.\nRaw sequence data (BCL files) were converted to FASTQ format via Illumina Casava 1.8.2. Reads were decoded based on their barcodes and read quality was evaluated with FastQC (http://www.bioinformatics.babraham.ac.uk/projects/fastqc/). Reads were mapped to the mouse transcriptome (NCBI GRCh37) using CLC Genomics Workbench Version 7.0 (CLCbio) or TopHat2 (Version 2.0.10) allowing two mismatches. Reads mapped to the exons of a gene were summed at the gene level. To identify differentially expressed genes, the statistical significance (p-value) of the differential expressions was assessed with DESeq package (version 1.6 or 2.0). […]", "key": {"[1]": {"conditions": "α-GCGR vs Control, isolated islets"}}, "data": [{"molecule": "B1", "values": [{"measurement": "Slc38a5 gene expression in isolated pancreatic islets", "setting": "mice, vs control antibody", "value": "most upregulated gene"}, {"measurement": "1700086L19Rik Fold change", "setting": "[1]", "value": 1.89}, {"measurement": "1810011O10Rik Fold change", "setting": "[1]", "value": "−1.64"}, {"measurement": "1810041L15Rik Fold change", "setting": "[1]", "value": 1.67}, {"measurement": "4930539E08Rik Fold change", "setting": "[1]", "value": 1.96}, {"measurement": "9030617O03Rik Fold change", "setting": "[1]", "value": 1.72}, {"measurement": "AW551984 Fold change", "setting": "[1]", "value": 1.69}, {"measurement": "Acta1 Fold change", "setting": "[1]", "value": "−1.79"}, {"measurement": "Agpat4 Fold change", "setting": "[1]", "value": 1.73}, {"measurement": "Agt Fold change", "setting": "[1]", "value": 1.78}, {"measurement": "Ang Fold change", "setting": "[1]", "value": 1.62}, {"measurement": "Ano1 Fold change", "setting": "[1]", "value": "−1.78"}, {"measurement": "Anxa3 Fold change", "setting": "[1]", "value": "−1.53"}, {"measurement": "Anxa13 Fold change", "setting": "[1]", "value": "−1.60"}, {"measurement": "Apoa2 Fold change", "setting": "[1]", "value": 1.68}, {"measurement": "Apod Fold change", "setting": "[1]", "value": 1.53}, {"measurement": "Apol7a Fold change", "setting": "[1]", "value": "−1.51"}, {"measurement": "Arg1 Fold change", "setting": "[1]", "value": 1.53}, {"measurement": "Arx Fold change", "setting": "[1]", "value": 1.59}, {"measurement": "Asb11 Fold change", "setting": "[1]", "value": "−1.51"}, {"measurement": "Avpr1b Fold change", "setting": "[1]", "value": 2.54}, {"measurement": "Basp1 Fold change", "setting": "[1]", "value": 1.65}, {"measurement": "Blnk Fold change", "setting": "[1]", "value": 1.55}, {"measurement": "Bok Fold change", "setting": "[1]", "value": "−1.85"}, {"measurement": "Car9 Fold change", "setting": "[1]", "value": "−1.55"}, {"measurement": "Cdc42ep1 Fold change", "setting": "[1]", "value": "−1.54"}, {"measurement": "Clec2d Fold change", "setting": "[1]", "value": 1.82}, {"measurement": "Clic6 Fold change", "setting": "[1]", "value": "−1.69"}, {"measurement": "Clu Fold change", "setting": "[1]", "value": "−1.80"}, {"measurement": "Cnih2 Fold change", "setting": "[1]", "value": 1.55}, {"measurement": "Cobl Fold change", "setting": "[1]", "value": 1.58}, {"measurement": "Ctse Fold change", "setting": "[1]", "value": "−1.50"}, {"measurement": "Dbpht2 Fold change", "setting": "[1]", "value": 1.87}, {"measurement": "Dmbt1 Fold change", "setting": "[1]", "value": "−1.61"}, {"measurement": "Dpp6 Fold change", "setting": "[1]", "value": 1.79}, {"measurement": "Drc1 Fold change", "setting": "[1]", "value": 1.96}, {"measurement": "Eda2r Fold change", "setting": "[1]", "value": 1.59}, {"measurement": "Eef1a2 Fold change", "setting": "[1]", "value": 2.18}, {"measurement": "Ehf Fold change", "setting": "[1]", "value": 1.61}, {"measurement": "Etv1 Fold change", "setting": "[1]", "value": 1.62}, {"measurement": "F5 Fold change", "setting": "[1]", "value": 1.51}, {"measurement": "Ffar4 Fold change", "setting": "[1]", "value": 1.78}, {"measurement": "Fgd3 Fold change", "setting": "[1]", "value": "−1.67"}, {"measurement": "Fgl2 Fold change", "setting": "[1]", "value": 1.65}, {"measurement": "Gamt Fold change", "setting": "[1]", "value": "−1.50"}, {"measurement": "Gbp8 Fold change", "setting": "[1]", "value": 1.84}, {"measurement": "Gbp9 Fold change", "setting": "[1]", "value": 1.74}, {"measurement": "Gc Fold change", "setting": "[1]", "value": 1.83}, {"measurement": "Gcg Fold change", "setting": "[1]", "value": 3.55}, {"measurement": "Gcnt4 Fold change", "setting": "[1]", "value": 1.58}, {"measurement": "Gfra1 Fold change", "setting": "[1]", "value": 1.53}, {"measurement": "Gfra3 Fold change", "setting": "[1]", "value": 2.71}, {"measurement": "Gm609 Fold change", "setting": "[1]", "value": 2.04}, {"measurement": "Gm20554 Fold change", "setting": "[1]", "value": 1.67}, {"measurement": "Gng2 Fold change", "setting": "[1]", "value": 1.63}, {"measurement": "Gpr119 Fold change", "setting": "[1]", "value": 1.54}, {"measurement": "Gpx3 Fold change", "setting": "[1]", "value": 2.86}, {"measurement": "Hspb1 Fold change", "setting": "[1]", "value": "−1.54"}, {"measurement": "Ifih1 Fold change", "setting": "[1]", "value": 2.33}, {"measurement": "Igsf23 Fold change", "setting": "[1]", "value": "−1.65"}, {"measurement": "Irx1 Fold change", "setting": "[1]", "value": 1.83}, {"measurement": "Irx2 Fold change", "setting": "[1]", "value": 2.00}, {"measurement": "Itgb4 Fold change", "setting": "[1]", "value": "−1.69"}, {"measurement": "Jchain Fold change", "setting": "[1]", "value": 1.57}, {"measurement": "Kcna2 Fold change", "setting": "[1]", "value": "−1.68"}, {"measurement": "Kcnab3 Fold change", "setting": "[1]", "value": "−1.73"}, {"measurement": "Kcnf1 Fold change", "setting": "[1]", "value": "−1.56"}, {"measurement": "Kcnk3 Fold change", "setting": "[1]", "value": 2.23}, {"measurement": "Klb Fold change", "setting": "[1]", "value": 1.77}, {"measurement": "Klhl13 Fold change", "setting": "[1]", "value": 1.91}, {"measurement": "Krt19 Fold change", "setting": "[1]", "value": "−1.61"}, {"measurement": "Krt20 Fold change", "setting": "[1]", "value": "−1.63"}, {"measurement": "Krt23 Fold change", "setting": "[1]", "value": "−1.96"}, {"measurement": "Lamb3 Fold change", "setting": "[1]", "value": "−1.71"}, {"measurement": "Mafb Fold change", "setting": "[1]", "value": 1.86}, {"measurement": "Mamld1 Fold change", "setting": "[1]", "value": 1.75}, {"measurement": "Mapk13 Fold change", "setting": "[1]", "value": "−1.50"}, {"measurement": "Matn2 Fold change", "setting": "[1]", "value": "−1.55"}, {"measurement": "Ndst4 Fold change", "setting": "[1]", "value": 2.71}, {"measurement": "Necab2 Fold change", "setting": "[1]", "value": "−1.50"}, {"measurement": "Nefm Fold change", "setting": "[1]", "value": 1.53}, {"measurement": "Npr1 Fold change", "setting": "[1]", "value": "−1.65"}, {"measurement": "Nptxr Fold change", "setting": "[1]", "value": "−1.57"}, {"measurement": "Nsg2 Fold change", "setting": "[1]", "value": 1.56}, {"measurement": "Ntn1 Fold change", "setting": "[1]", "value": "−1.61"}, {"measurement": "Nudt11 Fold change", "setting": "[1]", "value": 2.00}, {"measurement": "Nyap1 Fold change", "setting": "[1]", "value": 1.77}, {"measurement": "Ocrl Fold change", "setting": "[1]", "value": 1.57}, {"measurement": "Oit1 Fold change", "setting": "[1]", "value": 1.71}, {"measurement": "Olfm3 Fold change", "setting": "[1]", "value": 1.96}, {"measurement": "Oxtr Fold change", "setting": "[1]", "value": 1.53}, {"measurement": "Pdk4 Fold change", "setting": "[1]", "value": 2.83}, {"measurement": "Peg10 Fold change", "setting": "[1]", "value": 2.06}, {"measurement": "Pla2g2d Fold change", "setting": "[1]", "value": 1.50}, {"measurement": "Ptf1a Fold change", "setting": "[1]", "value": "−1.95"}, {"measurement": "Ptprd Fold change", "setting": "[1]", "value": 1.62}, {"measurement": "Ptprg Fold change", "setting": "[1]", "value": 1.52}, {"measurement": "Rasd1 Fold change", "setting": "[1]", "value": "−1.54"}, {"measurement": "Rbms3 Fold change", "setting": "[1]", "value": 1.51}, {"measurement": "Rbp4 Fold change", "setting": "[1]", "value": 1.64}, {"measurement": "Rcn1 Fold change", "setting": "[1]", "value": 1.54}, {"measurement": "Rragb Fold change", "setting": "[1]", "value": 1.67}, {"measurement": "Sema3e Fold change", "setting": "[1]", "value": 1.81}, {"measurement": "Serpinb6b Fold change", "setting": "[1]", "value": "−1.68"}, {"measurement": "Serpine2 Fold change", "setting": "[1]", "value": 2.80}, {"measurement": "Serping1 Fold change", "setting": "[1]", "value": 1.71}, {"measurement": "Sftpd Fold change", "setting": "[1]", "value": 2.07}, {"measurement": "Sgce Fold change", "setting": "[1]", "value": 1.84}, {"measurement": "Sh2d4a Fold change", "setting": "[1]", "value": "−1.52"}, {"measurement": "Sh3bgr Fold change", "setting": "[1]", "value": 1.54}, {"measurement": "Slc38a3 Fold change", "setting": "[1]", "value": "−1.54"}, {"measurement": "Slc38a5 Fold change", "setting": "[1]", "value": 5.54}, {"measurement": "Smarca1 Fold change", "setting": "[1]", "value": 1.88}, {"measurement": "Spns2 Fold change", "setting": "[1]", "value": "−1.76"}, {"measurement": "St8sia1 Fold change", "setting": "[1]", "value": "−1.67"}, {"measurement": "Syt16 Fold change", "setting": "[1]", "value": 1.63}, {"measurement": "Tead2 Fold change", "setting": "[1]", "value": "−1.60"}, {"measurement": "Tesc Fold change", "setting": "[1]", "value": 1.54}, {"measurement": "Tmsb15b1 Fold change", "setting": "[1]", "value": 1.60}, {"measurement": "Tspan1 Fold change", "setting": "[1]", "value": "−2.50"}, {"measurement": "Ttr Fold change", "setting": "[1]", "value": 4.27}, {"measurement": "Vnn1 Fold change", "setting": "[1]", "value": "−1.50"}, {"measurement": "Vwde Fold change", "setting": "[1]", "value": 2.23}, {"measurement": "Wfdc16 Fold change", "setting": "[1]", "value": 1.51}, {"measurement": "Wnk3 Fold change", "setting": "[1]", "value": 2.33}]}]}
